B2: human ICOSL (inducible co-stimulator ligand), full-length, isoform 1, N-terminal His-tag (ligand, not shown: small tags and cut ends)
chain: DTQEKEVRAMVGSDVELSCACPEGSRFDLNDVYVYWQTSESKTVVTYHIPQNSSLENVDSRYRNRALMSPAGMLRGDFSLRLFNVTPQDEQKFHCLVLSQSLGFQEVLSVEVTLHVAANFSVPVVSAPHSPSQDELTFTCTSINGYPRPNVYWINKTDNSLLDQALQNDTVFLNMRGLYDVVSVLRIARTPSVNIGCCIENVLLQQNLTVGSQTGNDIGERDKITENPVSTGEKNAAT
notes: The reagent list also names a bought human ICOSL-His Tag (Thermo Fisher 11559H08H50); also called hICOSL; B7h

In experiment [1] the target is T1, recombinant mouse integrin αvβ3 (R&D Systems, 7889-AV-050) (mouse, UniProt P43406 31-988; O54890 26-717).
T1 construct: also called mouse αvβ3 integrin
T1 sequence (P43406 31-988 limits assumed, chain 1 of 2): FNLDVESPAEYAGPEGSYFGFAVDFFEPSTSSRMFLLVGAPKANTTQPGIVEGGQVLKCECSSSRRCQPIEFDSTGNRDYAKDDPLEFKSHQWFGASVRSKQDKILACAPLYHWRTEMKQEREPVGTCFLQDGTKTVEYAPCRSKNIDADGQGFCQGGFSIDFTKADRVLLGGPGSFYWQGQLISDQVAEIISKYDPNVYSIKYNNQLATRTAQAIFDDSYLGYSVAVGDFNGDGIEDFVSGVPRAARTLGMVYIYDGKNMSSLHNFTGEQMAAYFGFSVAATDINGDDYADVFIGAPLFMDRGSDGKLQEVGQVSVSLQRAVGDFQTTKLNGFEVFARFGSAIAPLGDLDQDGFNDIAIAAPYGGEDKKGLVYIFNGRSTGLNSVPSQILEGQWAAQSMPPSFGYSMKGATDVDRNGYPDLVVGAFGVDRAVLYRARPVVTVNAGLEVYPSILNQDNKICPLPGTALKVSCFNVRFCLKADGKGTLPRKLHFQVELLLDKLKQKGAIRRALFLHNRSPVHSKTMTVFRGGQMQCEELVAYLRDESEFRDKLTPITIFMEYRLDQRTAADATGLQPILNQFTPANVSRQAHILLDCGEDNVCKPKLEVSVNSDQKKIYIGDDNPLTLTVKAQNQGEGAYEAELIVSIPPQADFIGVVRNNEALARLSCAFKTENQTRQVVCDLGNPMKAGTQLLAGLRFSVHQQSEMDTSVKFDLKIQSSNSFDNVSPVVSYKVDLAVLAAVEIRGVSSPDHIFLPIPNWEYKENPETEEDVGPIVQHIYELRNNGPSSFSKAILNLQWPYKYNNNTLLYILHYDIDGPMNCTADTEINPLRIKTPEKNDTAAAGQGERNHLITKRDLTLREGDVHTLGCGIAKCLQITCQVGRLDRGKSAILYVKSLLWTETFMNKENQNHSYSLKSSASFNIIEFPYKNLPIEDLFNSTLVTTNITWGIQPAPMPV
T1 sequence (O54890 26-717 limits assumed, chain 2 of 2): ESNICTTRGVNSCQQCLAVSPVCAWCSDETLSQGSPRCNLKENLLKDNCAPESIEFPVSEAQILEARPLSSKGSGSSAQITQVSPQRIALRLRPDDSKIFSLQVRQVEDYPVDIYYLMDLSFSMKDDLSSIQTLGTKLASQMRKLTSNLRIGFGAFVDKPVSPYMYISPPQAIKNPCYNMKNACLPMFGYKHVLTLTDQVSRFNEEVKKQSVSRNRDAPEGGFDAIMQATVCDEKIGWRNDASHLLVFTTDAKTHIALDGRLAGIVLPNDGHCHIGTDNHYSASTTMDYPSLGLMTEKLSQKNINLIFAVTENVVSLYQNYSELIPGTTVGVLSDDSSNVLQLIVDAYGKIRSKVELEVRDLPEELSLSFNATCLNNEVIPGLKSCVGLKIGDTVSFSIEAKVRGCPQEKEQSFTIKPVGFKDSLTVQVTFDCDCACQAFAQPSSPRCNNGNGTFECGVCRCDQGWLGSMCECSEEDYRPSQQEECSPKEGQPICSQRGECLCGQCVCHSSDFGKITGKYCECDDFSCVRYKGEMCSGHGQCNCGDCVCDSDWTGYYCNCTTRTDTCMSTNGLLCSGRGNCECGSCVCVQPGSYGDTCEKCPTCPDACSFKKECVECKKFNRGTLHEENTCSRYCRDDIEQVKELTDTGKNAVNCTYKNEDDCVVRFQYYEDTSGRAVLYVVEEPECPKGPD
As to the kind of experiment: SPR (Biacore T200), ICOSL immobilised on CM5, αvβ3 as analyte, Mn2+ (active integrin), kinetic 1:1 Langmuir fit (kd/ka).

Experiment [2] addresses T1, recombinant mouse integrin αvβ3 (R&D …). As to the kind of experiment: SPR, ICOSL immobilised, inactive αvβ3 (EDTA, no Mn2+), steady-state affinity fit.
The target is the same in experiment [3]. As to the kind of experiment: SPR, ICOSL immobilised, αvβ3 as analyte, 2 mM Ca2+ and 1 mM Mg2+ (inactive integrin). A general note: In SPR one partner is held on a chip, and binding of the other changes the refractive index at the surface.
The target is the same in experiment [4]. The experiment is described as follows: SPR, ICOSL immobilised, αvβ3 as analyte, 0.2 mM Ca2+ and 0.1 mM Mg2+, kinetic 1:1 fit.
Experiment [5] deals with recombinant human integrin αvβ5 (R&D Systems, 2528-AV) (human, UniProt P06756 31-992; P18084 24-719). The experiment is described as follows: SPR, ICOSL immobilised, integrin as analyte.
recombinant human integrin αvβ5 (R&D Systems, 2528-AV), sequence (P06756 31-992 limits assumed, chain 1 of 2): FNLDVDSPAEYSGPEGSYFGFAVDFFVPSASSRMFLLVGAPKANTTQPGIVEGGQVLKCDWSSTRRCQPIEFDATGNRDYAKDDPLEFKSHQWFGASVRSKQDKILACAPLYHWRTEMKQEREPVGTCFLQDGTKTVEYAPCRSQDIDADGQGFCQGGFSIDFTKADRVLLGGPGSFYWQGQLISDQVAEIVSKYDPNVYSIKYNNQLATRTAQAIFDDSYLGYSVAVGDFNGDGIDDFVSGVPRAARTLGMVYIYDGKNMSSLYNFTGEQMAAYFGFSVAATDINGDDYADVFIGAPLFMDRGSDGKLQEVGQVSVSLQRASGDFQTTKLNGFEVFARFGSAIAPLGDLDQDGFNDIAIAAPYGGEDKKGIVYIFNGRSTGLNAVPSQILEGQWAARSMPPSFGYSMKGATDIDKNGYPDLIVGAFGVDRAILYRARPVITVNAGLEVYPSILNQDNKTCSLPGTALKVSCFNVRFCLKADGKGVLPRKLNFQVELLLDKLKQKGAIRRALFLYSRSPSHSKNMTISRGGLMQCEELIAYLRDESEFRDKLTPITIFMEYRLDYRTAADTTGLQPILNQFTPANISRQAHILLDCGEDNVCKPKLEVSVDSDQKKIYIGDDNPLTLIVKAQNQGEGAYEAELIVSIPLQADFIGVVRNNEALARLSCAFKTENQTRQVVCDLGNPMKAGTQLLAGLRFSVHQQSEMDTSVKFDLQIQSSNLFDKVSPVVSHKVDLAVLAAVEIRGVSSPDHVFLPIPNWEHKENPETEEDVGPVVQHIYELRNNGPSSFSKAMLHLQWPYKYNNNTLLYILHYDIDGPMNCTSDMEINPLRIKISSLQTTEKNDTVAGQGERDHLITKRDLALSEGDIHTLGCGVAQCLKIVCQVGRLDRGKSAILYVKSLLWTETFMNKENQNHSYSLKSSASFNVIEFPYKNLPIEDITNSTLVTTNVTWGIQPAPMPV
recombinant human integrin αvβ5 (R&D Systems, 2528-AV), sequence (P18084 24-719 limits assumed, chain 2 of 2): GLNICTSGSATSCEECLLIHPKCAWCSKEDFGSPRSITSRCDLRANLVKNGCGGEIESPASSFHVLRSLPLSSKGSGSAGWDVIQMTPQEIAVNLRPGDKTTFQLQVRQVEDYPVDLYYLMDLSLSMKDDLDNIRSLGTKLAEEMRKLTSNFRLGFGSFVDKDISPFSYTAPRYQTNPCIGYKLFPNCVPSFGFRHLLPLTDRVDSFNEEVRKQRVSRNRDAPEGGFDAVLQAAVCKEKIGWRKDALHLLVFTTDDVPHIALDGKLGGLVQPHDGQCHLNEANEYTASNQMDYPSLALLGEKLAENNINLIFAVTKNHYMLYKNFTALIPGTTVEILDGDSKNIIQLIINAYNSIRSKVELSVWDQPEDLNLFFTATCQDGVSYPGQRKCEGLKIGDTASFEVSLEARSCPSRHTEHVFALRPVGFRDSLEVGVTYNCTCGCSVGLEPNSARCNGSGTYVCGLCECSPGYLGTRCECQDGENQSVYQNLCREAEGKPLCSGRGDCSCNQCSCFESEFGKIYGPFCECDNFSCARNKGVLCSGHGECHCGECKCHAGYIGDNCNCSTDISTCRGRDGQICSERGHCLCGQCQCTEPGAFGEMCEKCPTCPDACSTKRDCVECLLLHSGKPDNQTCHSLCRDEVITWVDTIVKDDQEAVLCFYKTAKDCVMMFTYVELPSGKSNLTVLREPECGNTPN
Experiment [6] concerns the target T2, recombinant human integrin αIIbβ3 (R&D Systems, 7148-A2) (human, UniProt P08514 32-993; P05106 27-718).
T2 construct: also called αllbβ3
The experiment is described as follows: SPR, ICOSL immobilised, integrin as analyte.

In experiment [7] the target is T3, recombinant human integrin αvβ3 (R&D Systems, 3050-AV) (human, UniProt P06756 31-992; P05106 27-718).
T3 construct: Analyte in SPR; also called αvβ3 integrin
T3 sequence (P06756 31-992 limits assumed, chain 1 of 2): as the sequence (P06756 31-992 limits assumed, chain 1 of 2) above
T3 sequence (P05106 27-718 limits assumed, chain 2 of 2): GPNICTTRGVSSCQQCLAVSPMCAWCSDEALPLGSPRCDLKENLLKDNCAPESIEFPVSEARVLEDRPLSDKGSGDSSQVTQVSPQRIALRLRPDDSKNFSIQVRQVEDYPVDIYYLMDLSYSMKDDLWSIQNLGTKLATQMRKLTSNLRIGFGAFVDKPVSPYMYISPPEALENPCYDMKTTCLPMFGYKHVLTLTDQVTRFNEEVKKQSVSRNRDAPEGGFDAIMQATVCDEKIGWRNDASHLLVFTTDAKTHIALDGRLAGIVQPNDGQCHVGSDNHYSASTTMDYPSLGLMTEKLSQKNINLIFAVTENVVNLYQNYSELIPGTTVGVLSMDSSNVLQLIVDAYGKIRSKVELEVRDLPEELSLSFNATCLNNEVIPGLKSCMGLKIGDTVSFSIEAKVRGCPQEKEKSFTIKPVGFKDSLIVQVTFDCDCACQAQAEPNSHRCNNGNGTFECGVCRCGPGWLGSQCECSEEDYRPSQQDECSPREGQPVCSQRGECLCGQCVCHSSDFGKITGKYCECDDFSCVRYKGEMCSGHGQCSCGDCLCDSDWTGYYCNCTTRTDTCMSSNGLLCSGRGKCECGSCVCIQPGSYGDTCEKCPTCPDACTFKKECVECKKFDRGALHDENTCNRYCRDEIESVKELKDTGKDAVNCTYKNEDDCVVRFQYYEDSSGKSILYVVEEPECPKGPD
As to the kind of experiment: SPR (Biacore T200), ICOSL immobilised on CM5, αvβ3 as analyte, Mn2+ (active integrin), kinetic 1:1 Langmuir fit (kd/ka).

Experiment [8] addresses T3, recombinant human integrin αvβ3 (R&D …). The experiment is described as follows: SPR, ICOSL immobilised, inactive αvβ3 (EDTA, no Mn2+), steady-state affinity fit.
For experiment [9], the target named is B2. As to the kind of experiment: SPR.
Experiment [10] addresses T3, recombinant human integrin αvβ3 (R&D …). The experiment is described as follows: SPR, Mn2+ (active integrin).

T2 sequence (P08514 32-993 limits assumed, chain 1 of 2): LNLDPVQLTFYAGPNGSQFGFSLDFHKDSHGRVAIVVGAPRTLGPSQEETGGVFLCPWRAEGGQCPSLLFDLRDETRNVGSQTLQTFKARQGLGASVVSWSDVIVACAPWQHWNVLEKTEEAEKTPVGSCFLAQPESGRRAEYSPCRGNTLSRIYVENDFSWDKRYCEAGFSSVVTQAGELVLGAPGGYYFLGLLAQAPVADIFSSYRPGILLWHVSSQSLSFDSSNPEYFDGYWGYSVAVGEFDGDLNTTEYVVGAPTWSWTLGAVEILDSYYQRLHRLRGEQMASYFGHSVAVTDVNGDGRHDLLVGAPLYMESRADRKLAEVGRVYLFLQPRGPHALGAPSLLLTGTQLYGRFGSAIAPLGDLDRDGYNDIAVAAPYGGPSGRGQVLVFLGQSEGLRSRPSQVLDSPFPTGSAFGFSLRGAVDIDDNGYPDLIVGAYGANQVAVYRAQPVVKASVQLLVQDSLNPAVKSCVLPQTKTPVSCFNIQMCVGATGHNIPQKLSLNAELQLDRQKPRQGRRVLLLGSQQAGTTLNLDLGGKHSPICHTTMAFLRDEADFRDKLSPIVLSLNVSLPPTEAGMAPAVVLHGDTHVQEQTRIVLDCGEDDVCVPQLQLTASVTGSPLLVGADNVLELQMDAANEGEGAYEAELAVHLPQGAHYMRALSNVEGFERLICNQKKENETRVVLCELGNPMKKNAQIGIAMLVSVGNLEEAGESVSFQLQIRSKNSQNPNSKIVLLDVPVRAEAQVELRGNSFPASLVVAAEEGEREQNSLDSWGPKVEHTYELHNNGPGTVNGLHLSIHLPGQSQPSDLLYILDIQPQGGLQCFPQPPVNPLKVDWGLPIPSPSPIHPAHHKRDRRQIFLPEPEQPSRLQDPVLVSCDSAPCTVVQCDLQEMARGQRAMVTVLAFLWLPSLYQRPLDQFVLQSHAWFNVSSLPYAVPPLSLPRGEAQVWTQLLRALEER
T2 sequence (P05106 27-718 limits assumed, chain 2 of 2): as the sequence (P05106 27-718 limits assumed, chain 2 of 2) above

B1: mouse ICOSL, wild type (RGD), full-length, N-terminal His-tag (ligand, not shown: small tags and cut ends)
chain: ETEVGAMVGSNVVLSCIDPHRRHFNLSGLYVYWQIENPEVSVTYYLPYKSPGINVDSSYKNRGHLSLDSMKQGNFSLYLKNVTPQDTQEFTCRVFMNTATELVKILEEVVRLRVAANFSTPVISTSDSSNPGQERTYTCMSKNGYPEPNLYWINTTDNSLIDTALQNNTVYLNKLGLYDVISTLRLPWTSRGDVLCCVENVALHQNITSISQAESFTGNNTKNPQETHNNE
notes: also called mICOSL; WT mICOSL
As usually defined, the Kd is the concentration at which binding is half-saturated. Turning to B1, the Kd in [1] is 0.0242 µM; in experiment [2] it was not below 2000 µM; in experiment [3], 0.4 µM; in experiment [4], 0.0213 µM.
Consider B2, for which the binding result in experiment [5] and in [6] was “no binding” throughout. Further, the results for the Kd in experiment [7] and in experiment [8] were 0.0162 µM and 0.412 µM, respectively.

B3: recombinant human ICOS (R&D Systems, 169-CS) (receptor, UniProt Q9Y6W8 21-141, looked up)
chain: EINGSANYEMFIFHNGGVQILCKYPDIVQQFKMQLLKGGQILCDLTKTKGSGNTVSIKSLKFCHSQLSNNSVSFFLYNLDHSHANYYFCNLSIFDPPPFKVTLTGGYLHIYESQLCCQLKF
In the case of B3, the Kd in experiment [9] was 0.005 µM.

B4: recombinant human B7.1 (R&D Systems, 140-B1) (ligand, UniProt P33681 35-242, looked up)
chain: VIHVTKEVKEVATLSCGHNVSVEELAQTRIYWQKEKKMVLTMMSGDMNIWPEYKNRTIFDITNNLSIVILALRPSDEGTYECVVLKYEKDAFKREHLAEVTLSVKADFPTPSISDFEIPTSNIRRIICSTSGGFPEPHLSWLENGEELNAINTTVSQDPETELYAVSSKLDFNMTTNHSFMCLIKYGHLRVNQTFNWNTTKQEHFPDN
notes: also called RGD-lacking B7.1
B4: the binding result in experiment [10] was “no binding”.

These data come from patent US20210208163A1 (RUSH UNIVERSITY MEDICAL CENTER, published 2021).
